Results on 1 molecule are retold here after patent publication US20150276749A1 (KONICA MINOLTA, published 2015).

Assay [1] has as its target T1, soluble-type human DSG3-mouse IgG2aFc fusion protein (human; mouse, UniProt P32926 50-616).
T1 construct: also called human desmoglein 3; desmoglein 3 standard; not shown: mouse IgG2a Fc, printed 'mouse IgG2aFc' and 'mouse IgG2 constant region'
T1 sequence: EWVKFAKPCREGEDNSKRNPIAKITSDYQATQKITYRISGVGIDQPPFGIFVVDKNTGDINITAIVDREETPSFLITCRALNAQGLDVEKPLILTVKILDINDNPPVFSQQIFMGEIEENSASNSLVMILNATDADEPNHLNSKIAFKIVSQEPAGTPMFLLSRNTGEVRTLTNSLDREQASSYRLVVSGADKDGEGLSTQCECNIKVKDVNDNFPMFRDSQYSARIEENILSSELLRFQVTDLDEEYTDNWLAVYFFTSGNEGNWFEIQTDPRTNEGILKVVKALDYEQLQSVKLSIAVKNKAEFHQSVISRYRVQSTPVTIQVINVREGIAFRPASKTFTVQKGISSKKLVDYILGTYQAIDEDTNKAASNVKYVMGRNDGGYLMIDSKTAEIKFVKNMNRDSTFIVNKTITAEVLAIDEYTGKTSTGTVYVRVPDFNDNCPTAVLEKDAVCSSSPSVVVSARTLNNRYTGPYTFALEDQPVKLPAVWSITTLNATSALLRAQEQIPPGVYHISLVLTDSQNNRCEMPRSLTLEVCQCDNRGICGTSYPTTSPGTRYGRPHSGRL
Nature of the assay: SPFS sandwich; immobilized DF151, detection D219-3; antigen 1,000 pg/mL (µg/mL in the source). How it is done:
Once again, a Tris-buffered saline (TBS) containing 0.05% by mass of Tween 20 was fed and circulated in the flow path for 10 minutes to wash the flow path. Then, with the flow path being filled with PBS buffer (pH 7.4), the assay area was irradiated with laser light (640 nm, 40 μW) from the back side of the metal thin films, and the fluorescence intensity was measured using a photomultiplier tube (PMT) arranged above the assay area. The thus measured value was defined as “signal” (S) at a desmoglein 3 concentration of 100 μg/mL.
On another front, the fluorescence intensity was also measured by the same procedures as described above, except that a PBS solution containing no desmoglein 3 (0 μg/mL) was fed in place of the PBS solution containing 100 μg/mL of desmoglein 3. The thus measured value was defined as “noise” (N).
Further, the fluorescence intensity was measured by the same procedures as described above, except that the desmoglein 3 concentration of the fed PBS solution was changed to 10,000 μg/mL, 5,000 μg/mL, 1,000 μg/mL, 200 μg/mL, 50 μg/mL, 10 μg/mL, 3.16 μg/mL, 1 μg/mL, 0.316 μg/mL, 0.1 μg/mL and 0.031 μg/mL. The thus measured values were each defined as “signal” (S) at the respective concentrations.

Assay [2] deals with T1, soluble-type human DSG3-mouse IgG2aFc …. Nature of the assay: sandwich ELISA, luminescence over blank; immobilized DF151, detection MAB1720; antigen 40 pg/mL. The method, then: (§1) Subsequently, the antigen solutions having the above-described concentrations were each added to the plate in an amount of 50 μL/well, and the plate was incubated at room temperature for 1 hour. Then, the antigen solution was removed, and the plate was washed with 0.05% Tween 20-PBS three times. Thereafter, the 1-μg/mL biotinylated antibody solution was added in an amount of 50 μL/well, and the plate was incubated at room temperature for 1 hour.
(§2) Then, after removing the streptavidin-HRP solution and washing the plate with 0.05% Tween 20-PBS three times, a substrate solution (SuperSignal ELISA Femto Maximum Sensitivity Substrate (registered trademark); Pierce Biotechnology, Inc.) was added in an amount of 100 μL/well. One minute thereafter, the luminescence intensity was measured using a luminometer, Fluoroskan Ascent FL (trade name, Thermo Electron Corporation).
(§3) The numerical values shown in Table 1 represent the minimum values of the antigen solution concentration having an S/N ratio of higher than 2 (hereinafter, referred to as “detection limit concentration”) and the unit of the numerical values is pg/mL. The S/N ratio was determined by dividing the luminescence intensity at the respective antigen solution concentrations ([…]) by the luminescence intensity of an antigen-free blank antigen solution (0 μg/mL).
(In an ELISA, binding on a coated surface is turned into a signal by an enzyme label.)

The target is the same in assay [3]. Nature of the assay: sandwich ELISA, luminescence over blank; immobilized DF151, detection D219-3; antigen 200 pg/mL. How it is done: as §1, §2, §3
Assay [4] has the same target. Nature of the assay: sandwich ELISA, luminescence over blank; immobilized DF151, detection MAB1720; antigen 200 pg/mL. How it is done: as §1, §2, §3
Assay [5] has the same target. Briefly: sandwich ELISA, luminescence over blank; immobilized DF151, detection DF151; antigen 10 pg/mL. How it is done:
as §1, §2
(§4) The numerical values shown in Table 1 represent the minimum values of the antigen solution concentration having an S/N ratio of higher than 2 (hereinafter, referred to as “detection limit concentration”) and the unit of the numerical values is pg/mL. […]

For assay [6] the target is unchanged. Briefly: sandwich ELISA, luminescence over blank; immobilized DF151, detection D219-3; antigen 1 pg/mL. The method, then:
as §1, §2, §4

The target is the same in assay [7]. Nature of the assay: sandwich ELISA, luminescence over blank; immobilized DF151, detection DF151; antigen 5000 pg/mL. How it is done:
as §1, §2, §3

Assay [8] shares this target. Briefly: sandwich ELISA, luminescence over blank; immobilized DF151, detection MAB1720; antigen 5000 pg/mL. How it is done:
as §1, §2, §3

For assay [9] the target is unchanged. Nature of the assay: sandwich ELISA, luminescence over blank; immobilized DF151, detection DF151; antigen 1 pg/mL. How it is done:
as §1, §2, §3

For assay [10] the target is unchanged. Nature of the assay: sandwich ELISA, luminescence over blank; immobilized DF151, detection DF151; antigen 40 pg/mL. How it is done:
as §1, §2, §3

Assay [11] shares this target. Briefly: sandwich ELISA, luminescence over blank; immobilized DF151, detection DF151; antigen 1000 pg/mL. How it is done:
as §1, §2, §3

B1: DF151 (DF151[I] antibody) (antibody, mouse IgG2b, kappa, V domains shown)
VH: EVQLQQSGPELVKPGASVKISCKASGYSFTAYYMHWVKQSPEKCLEWIGQINPSTGGTTYNQKFKAKATLTVDKSSSTAYMQLKSLTSEDSAVYYCARWGDSWGQGTTLTVSS
VL: DIVLTQSPASLAVSLGQSVTISCRASESVEYYGTSLMQWYQQKPGQPPKLLIYGASDVESGVPARFSGSGSGTDFSLNIHPVEEDDIAMYFCQQSRKVPYTFGSGTKLEIKR
notes: Complete antibody; Biotinylated as detection antibody in ELISA; labeled with Alexa Fluor 647 as detection antibody in SPFS; also called DF151 antibody
Take B1: the S/N ratio in assay [1] came to 24.4; in assay [2], 1.1; in [3], 1; in assay [4] it was 1.6; in [5] it was 0.9; in assay [6], 0.8. The S/N ratio in assay [7] is 11.1; in assay [8], 17.7; in [9], 0.9; in [10], 0.9; in assay [11] it was 2.8.
